Assay [1] concerns the target T1, human fibrinogen (human, UniProt P02671 20-629; P02675 31-491; P02679 27-437).
T1 sequence 1: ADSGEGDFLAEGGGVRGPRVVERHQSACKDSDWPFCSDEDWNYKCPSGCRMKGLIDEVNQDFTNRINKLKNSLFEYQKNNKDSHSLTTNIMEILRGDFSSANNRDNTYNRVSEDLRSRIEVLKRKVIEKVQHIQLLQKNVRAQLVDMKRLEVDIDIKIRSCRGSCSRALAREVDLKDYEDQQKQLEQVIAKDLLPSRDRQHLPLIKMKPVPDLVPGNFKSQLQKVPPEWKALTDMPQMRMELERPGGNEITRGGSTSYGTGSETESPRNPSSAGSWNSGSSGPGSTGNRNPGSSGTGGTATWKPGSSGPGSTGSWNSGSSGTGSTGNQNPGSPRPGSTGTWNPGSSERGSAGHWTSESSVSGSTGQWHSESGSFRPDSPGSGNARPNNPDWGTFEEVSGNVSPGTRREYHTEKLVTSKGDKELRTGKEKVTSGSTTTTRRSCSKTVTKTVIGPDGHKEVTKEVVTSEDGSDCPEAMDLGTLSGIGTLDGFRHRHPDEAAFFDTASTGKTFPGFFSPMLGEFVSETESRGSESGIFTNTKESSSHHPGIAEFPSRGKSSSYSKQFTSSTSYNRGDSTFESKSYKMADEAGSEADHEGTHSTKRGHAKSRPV
T1 sequence 2: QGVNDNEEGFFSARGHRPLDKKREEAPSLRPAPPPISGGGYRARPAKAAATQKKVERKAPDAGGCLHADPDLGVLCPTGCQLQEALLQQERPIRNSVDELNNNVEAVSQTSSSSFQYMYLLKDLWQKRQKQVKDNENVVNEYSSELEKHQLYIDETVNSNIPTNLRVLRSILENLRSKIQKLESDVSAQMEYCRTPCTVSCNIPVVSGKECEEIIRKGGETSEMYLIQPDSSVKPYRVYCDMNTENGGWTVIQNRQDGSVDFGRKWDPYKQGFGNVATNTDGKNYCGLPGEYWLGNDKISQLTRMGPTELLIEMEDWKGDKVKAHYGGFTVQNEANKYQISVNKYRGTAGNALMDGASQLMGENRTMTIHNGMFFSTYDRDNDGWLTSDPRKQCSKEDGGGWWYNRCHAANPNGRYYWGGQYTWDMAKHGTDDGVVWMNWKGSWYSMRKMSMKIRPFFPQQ
T1 sequence 3: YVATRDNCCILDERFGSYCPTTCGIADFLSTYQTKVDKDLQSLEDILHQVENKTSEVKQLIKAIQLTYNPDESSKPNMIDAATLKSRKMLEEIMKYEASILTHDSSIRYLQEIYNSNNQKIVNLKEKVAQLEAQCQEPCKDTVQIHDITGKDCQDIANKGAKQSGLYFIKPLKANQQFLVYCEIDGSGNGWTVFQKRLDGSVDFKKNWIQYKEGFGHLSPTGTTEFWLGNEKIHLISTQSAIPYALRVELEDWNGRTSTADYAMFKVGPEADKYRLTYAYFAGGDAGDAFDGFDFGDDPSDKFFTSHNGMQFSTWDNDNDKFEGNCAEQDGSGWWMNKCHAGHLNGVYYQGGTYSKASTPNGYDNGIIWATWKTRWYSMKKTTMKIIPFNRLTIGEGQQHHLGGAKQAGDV
Put plainly: ELISA, ECM protein coated, His-tag protein detected with anti-His6 mAb.
Procedure: Plates were washed once with PBS and blocked with 1% BSA in PBS for 1 h. Fifty □l of 5 and 10 µM concentrations of purified His-tag proteins in the blocking buffer were added and incubated at ambient temperature for 2 h. Plates were washed three times with 0.05% Tween20 in PBS and incubated 2 h with 1:3000 dilution of His₆-tag monoclonal antibody (Amersham Biosciences Corp., Piscataway, N.J.) in blocking buffer. After three washes, 1:3000 dilution of alkaline phosphatase-conjugated anti-mouse antibody in blocking buffer was added to the wells and incubated 2 h. Finally, signal was detected with nitrobluetetrazolium (NBT) and 5-bromo-4-chloro-3-indolyl-phosphate (BCIP) in 0.1 M NaHCO₃, 1 mM MgCl₂, pH 9.8. Absorbance at 405 nm was measured with an ELISA reader

Assay [2] addresses T1, human fibrinogen. Put plainly: ELISA, ECM protein coated, recombinant protein detected with mouse antiserum; positive if signal 2.5x background.
The target of assay [3] is T1, human fibrinogen. Put plainly: screen of binding to ECM proteins; format not detailed for EF1269.

B1: EF0089 A domain (EF0089A), N-terminal His6-tag fusion protein (other)
chain: EEVNSDGQLTLGEVKQTSQQEMTLALQGKAQPVTQEVVVHYSANVSIKAAHWAAPNNTRKIQVDDQKKQIQIELNQQALADTLVLTLNPTATEDVTFSYGQQQRALTLKTGTDPTESTAITSSPAASANEGSTEEASTNSSVPRSSEETVASTTKAIESKTTESTTVKPRVAGPTDISDYFTGDETTIIDNFEDPIYLNPDGTPATPPYKEDVTIHWNFNWSIPEDVREQMKAGDYFEFQLPGNLKPNKPGSGDLVDAEGNVYGTYTISEDGTVRFTFNERITSESDIHGDFSLDTHLNDSDGRGPGDWVIDIPTQEDLPPVVIPIVPDTEQQIDKQGHFDRTPNPSAITWTVDINQAMKDQTNPTVTETWPTGNTFKSVKVYELVMNLDGTIKEVGRELSPDEYTVDKNGNVTIKGDTNKAYRLEYQTTIDEAVIPDGGGDVPFKNHATLTSDNNPNGLDAEATVTATYGKMLDKRNIDYDEANQEFTWEINYNYGEQTIPKDQAVITDTMGDNLTFEPDSLHLYSVTFDDKGNEVVGAELVEGKDYKVVINGDGSFAIDFLHDVTGAVKIDYKTKVDGIVEGDVAVNNRVDVGTGQHSEDDGTASQQNIIKNTGAVDYQNSTIGWTLAVNQNNYLMENAVITDTYEPVPGLTMVPNSLVVKDTTTGAQLTLGKDFMVEITRNADGETGFKVSFIGAYAKTSDAFHITYTTFFDVTELDANNPALDHYRNTAAIDWTDEAGNNHHSEDSKPFKPLPAFDLNAQKSGVYNAVTKEITWTIAVNLSNNRLVDAFLTDPILTNQTYLAGSLKVYEGNTKPDGSVEKVKPTQPLTDITMEEPSEKNQNTWRVDFPNDSRTYVIEFKTSVDEKVIEGSASYDNTASYTNQGSSRDVTGKVSIQHGGESVKKGGEYHKDDPDHVYWHVMINGAQSVLDDVVITDTPSPNQVLDPESLVIYGTNVTEDGTITPDKSVILEEGKDYTLEVTTDNETGQQKIVVKMAHIEAPYYMEYRSLVTSSAAGSTDTVSNQVSITGNGSEVVHGDDNGDVVVDIDHSGGHATGTKGKIQLKKTAMDETTILAGAHFQIWDQAKTQVLREGTVDATGVITFGG
notes: Expressed in E. coli from pQE-30 and purified; not shown: N-terminal His6-tag from vector pQE-30
With B1, the binding result with human fibrinogen [1] was “binds”.

B2: EF1093 A domain (recombinant EF1093), N-terminal His6-tag fusion protein (other)
chain: EENGESAQLVIHKKKMTDLPDPLIQNSGKEMSEFDKYQGLADVTFSIYNVTNEFYEQRAAGASVDAAKQAVQSLTPGKPVAQGTTDANGNVTVQLPKKQNGKDAVYTIKEEPKEGVVAATNMVVAFPVYEMIKQTDGSYKYGTEELAVVHIYPKNVVANDGSLHVKKVGTAENEGLNGAEFVISKSEGSPGTVKYIQGVKDGLYTWTTDKEQAKRFITGKSYEIGENDFTEAENGTGELTVKNLEVGSYILEEVKAPNNAELIENQTKTPFTIEANNQTPVEKTVKNDTSKVDKTTPSLDGKDVAIGEKIKYQISVNIPLGIADKEGDANKYVKFNLVDKHDAALTFDNVTSGEYAYALYDGDTVIAPENYQVTEQANGFTVAVNPAYIPTLTPGGTLKFVYFMHLNEKADPTKGFKNEANVDNGHTDDQTPPTVEVVTGGKRFIKVDGDVTATQALAGASFVVRDQNSDTANYLKIDETTKAATWVKTKAEATTFTTTADGLVDITGLKYGTYYLEETVAPDDYVLLTNRIEFVVNEQSYGTTENLVSPEKVPNKHK
notes: not shown: N-terminal His6-tag from vector pQE-30
As for B2, in the assay with human fibrinogen [2], the binding result is “binds”.

B3: EF2224 A domain (EF2224A), N-terminal His6-tag fusion protein (other)
chain: QEVTSDAEKTVEKDGLKVIGKIEDTSSQEDIKTVTYEVTNTRDVPIKDLILKQKNTNDSPIKFVLDTLSEERGPTSLEEQAKVETNEKDQTTDIKLLNLQPNSTRKITINGQITTKASNKLLVSVLIEDNEKGTLVIDLPSKDILADKESVSKEKQETSETKVENQANETASSTNEMTATTSNETKPEAGKAIESIQETALTQATESPEQPPLKAQPTGPLVPPTPGRGFNTPIYQSVHKGELFSTGNTNLKIANENTAAAQTFLNTRGASSGYAINNFPLEFADVDNDPNTYNSSRAYIDLNGAKEIAWAGLFWSASRYKGPAYGTNLSDEEISAPVQFTTPNGTVQRVSPQRYHRIDQDATNPGQRFGYNNTGFSNYADVTSILQGDKSATGSYTLADIPMTSSLNGQYQYYNFSGWSLFVVTKDQASKSRAFSIYYGARGNAAGTNNEFTMSNFLTAKQGNLDPIVTWFTVQGDKYWTGDNAQIKNSAGTWVNISNTLNPVNNAMNATVTDNDEHMVDKYPGKFAPDHPNFLDIDIDRMAIPEGVLNAGQNQINFRTTSSGDDYSTNAIGFAVNAETPEFEIKKEIVEPKETYKVGETITYRVSLKNTKADSEAINSVSKDALDGRLNYLPGSLKIISGPNSGEKTDASGDDQAEYDETNKQIIVRVGNGATATQGGSYKADTAETIYEFKARINERAKANELVPNSATVEAVDILTSAKVNETSNIVEAKIADEQVT
notes: as for B1
For B3, the binding result with human fibrinogen [1] was “binds”.

B4: EF1269 A domain (EF1269A), N-terminal His6-tag fusion protein (other)
chain: ETGYAQTEPTSTSETNQISATPNVVPRKQVGNIVTAIQLTDKEGNPLGTINQYTDIYLRIEFNLPDNTVNSGDTSVITLPEELRLEKNMTFNVVDDTGTVVAIAQTDVANKTVTLTYTDYVENHANISGSLYFTSLIDFENVENESKIPIYVTVEGEKIFAGDLDYQGEGDDVNEKFSKYSWFIEDDPTEIYNVLRINPTGQTYTDLEVEDVLKTESLSYMKDTMKIERGQWTLDGNAIWQFTPEEDITDQLAVQYGPDDRNFSVHFGNIGTNEYRITYKTKIDHLPEKGETFTNYAKLTENQTVVEEVEVSRVSQTGGGEANGEQYVVEIHKEDEAGQRLAGAEFELIRNSTNQTVAKITTDQNGTAIVKGLLKDNYTLVETKAPTGYQLSQNKIPITPEDFGKNLVALKTVVNHKISYQPVAASFLAGKVLLGKPLKDAEFQFELLDEKGTVLETVSNDTLGKIQFSPLTFETPGNYQYTIREVNTQQTGVSYDTHNLQVQVTVEALLGNLVATTQYDGGQVFTNHYTPEKPIESTTPPTSGTTDTTTNSTTETTSITIEKQAIRNKE
notes: as for B2
As for B4, the binding result in the assay with human fibrinogen [3] was “no binding”.
